Experimental data: publication PMC5727262, “Molecular mechanism of K65 acetylation-induced attenuation of Ubc9 and the NDSM interaction” (Scientific Reports, 2017)

Molecular target: Ac-Ubc9K65 (Ubc9 acetylated at K65), P63279
Test: ITC; 2 μl additions of peptide to 200 μl of WT Ubc9 or Ac-Ubc9K65; 25 °C; pH 8.0, 20 mM potassium phosphate, 100 mM NaCl; iTC200; fitted assuming 1:1 binding stoichiometry

Chain of Ac-Ubc9K65 (Ubc9 acetylated at K65), P63279 (P63279 whole entry): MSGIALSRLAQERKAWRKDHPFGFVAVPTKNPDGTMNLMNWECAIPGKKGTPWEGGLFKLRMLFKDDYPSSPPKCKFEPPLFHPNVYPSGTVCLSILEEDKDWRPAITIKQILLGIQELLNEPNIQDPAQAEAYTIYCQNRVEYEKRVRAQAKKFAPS

- Kd: 105 µM
Binder: VKVEVKEEEESSSN (modifications not checked) [CBP NDSM peptide]
